Among the data in US9120862 are RLU values, retold here.

Assay [1] has as its target PIVKA-II antigen (Protein Induced by Vitamin K Absence II; decarboxylated prothrombin) (human) (UniProt P00734). In words: … sandwich chemiluminescent immunoassay, 3C10 microparticles capture, conjugate detects; calibrator D, 750 mAU/mL PIVKA; mean of 5.
The target is the same in assay [2]. Description: … sandwich chemiluminescent immunoassay, 3C10 microparticles capture, conjugate detects; calibrator E, 7500 mAU/mL PIVKA; mean of 5.
Assay [3] shares this target. Description: … sandwich chemiluminescent immunoassay, 3C10 microparticles capture, conjugate detects; calibrator A, 0 mAU/mL PIVKA (blank); mean of 5.
Assay [4] shares this target. In words: … sandwich chemiluminescent immunoassay, 3C10 microparticles capture, conjugate detects; calibrator B, 20 mAU/mL PIVKA; mean of 5.
The target is the same in assay [5]. Description: … sandwich chemiluminescent immunoassay, 3C10 microparticles capture, conjugate detects; calibrator F, 30000 mAU/mL PIVKA; mean of 5.
The target is the same in assay [6]. In words: … sandwich chemiluminescent immunoassay, 3C10 microparticles capture, conjugate detects; calibrator C, 100 mAU/mL PIVKA; mean of 5.

On to “control conjugate that reacts to human prothrombin (Abbott Japan, Tokyo, Japan) (antibody)”, for which the RLU worked out at 19000 RLU in assay [1]; 204000 RLU in assay [2]; 190 RLU in assay [3]; 683 RLU in assay [4]; 871000 RLU in assay [5]; 2600 RLU in assay [6].
